The target of series [1] is T1, Calf intestinal alkaline phosphatase (CIP) (UniProt P19111 P19111:20-506). The series can be described thus: streptavidin plate chemiluminescence assay, SHMCK+ buffer pH 7.35, 1 mM CaCl2, 1 mM MgCl2, 37 C. The settings on record: tags: Boehringer Mannheim (Indianapolis, Ind.), 10 mg/ml; chain copies: 2. The procedure: The affinity of the initial random library and round 8 affinity enriched pool of Example 1 was performed by a plate-based assay using RNA-transcripts biotinylated on the 5′-terminus. Briefly, opaque white 96-well Lumino plates were coated with streptavidin (10 to 20 μg/well). Biotinylated RNA obtained either from the round 8 pool or the random library were added separately to individual wells of a 96-well microtiter plate (approximately 30 fMols RNA per well). After incubating for 1 hour at room temperature, wells were washed three times with […] of SHMCK+buffer. Varying concentrations of CIP, in SHMCK+buffer, were added to the wells and allowed to incubate for 1 hour at 37° C. Wells were washed four times with 200 μl SHMCK+buffer followed by the addition of a 100 μl solution consisting of 0.1 M diethanolamine pH 10, 10% volume/volume Sapphire enhancer solution (Tropix Inc., Bedford, Mass.), […] CSPD (Tropix, Inc.), 1 mM MgCl₂, and 0.02% sodium azide. After a 30 minute incubation, chemiluminescence was measured using a Berthold (Nashua, N.H.) LB 96P luminometer. Luminescence levels were integrated over one second and data were fit to a sigmoidal dose-response curve (variable slope), Y=Bottom+[(Top−Bottom)/1+10^{(Log EC50-X)(Hillslope)}] using GraphPad Prism version 2.01 (GraphPad Software; San Diego, Calif.). […]

In series [2] the target is T1, Calf intestinal alkaline phosphatase …. Description: streptavidin plate chemiluminescence assay, SHMCK+ buffer, 37 C. The settings on record: tags: Boehringer Mannheim (Indianapolis, Ind.), 10 mg/ml; chain copies: 2. As to the method: The affinity of the initial random library and round 8 affinity enriched pool of Example 1 was performed by a plate-based assay using RNA-transcripts biotinylated on the 5′-terminus. Briefly, opaque white 96-well Lumino plates were coated with streptavidin (10 to 20 μg/well). Biotinylated RNA obtained either from the round 8 pool or the random library were added separately to individual wells of a 96-well microtiter plate (approximately 30 fMols RNA per well). After incubating for 1 hour at room temperature, wells were washed three times with […] of SHMCK+buffer. Varying concentrations of CIP, in SHMCK+buffer, were added to the wells and allowed to incubate for 1 hour at 37° C. Wells were washed four times with 200 μl SHMCK+buffer followed by the addition of a 100 μl solution consisting of 0.1 M diethanolamine pH 10, 10% volume/volume Sapphire enhancer solution (Tropix Inc., Bedford, Mass.), […] CSPD (Tropix, Inc.), 1 mM MgCl₂, and 0.02% sodium azide. After a 30 minute incubation, chemiluminescence was measured using a Berthold (Nashua, N.H.) LB 96P luminometer. Luminescence levels were integrated over one second and data were fit to a sigmoidal dose-response curve (variable slope), Y=Bottom+[(Top−Bottom)/1+10^{(Log EC50-X)(Hillslope)}] using GraphPad Prism version 2.01 (GraphPad Software; San Diego, Calif.). Each replicate was considered individually and convergence was obtained when two consecutive iterations varied the sum of squares (relative distance of the points from the curve, 1/Y²) by less than 0.01%.

T1 sequence (P19111 20-506, one chain of several): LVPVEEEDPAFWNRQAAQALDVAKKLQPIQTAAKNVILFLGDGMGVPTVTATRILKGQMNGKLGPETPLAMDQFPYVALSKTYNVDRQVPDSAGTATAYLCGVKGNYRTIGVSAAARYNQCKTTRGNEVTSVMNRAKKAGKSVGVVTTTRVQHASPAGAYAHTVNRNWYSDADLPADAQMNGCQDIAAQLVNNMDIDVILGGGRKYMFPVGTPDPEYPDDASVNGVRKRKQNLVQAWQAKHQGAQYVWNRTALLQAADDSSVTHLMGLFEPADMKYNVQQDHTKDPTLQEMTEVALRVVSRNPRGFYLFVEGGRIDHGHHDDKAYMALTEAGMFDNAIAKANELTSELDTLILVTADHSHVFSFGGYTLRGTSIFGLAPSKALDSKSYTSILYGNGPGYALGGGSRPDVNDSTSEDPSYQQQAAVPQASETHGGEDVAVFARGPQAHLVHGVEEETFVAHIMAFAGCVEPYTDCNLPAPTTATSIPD

B1: DD-172-2-4 (group B) (ssRNA)
RNA: GGGAGACAAGAAUAAACGCUCAACGCCAGGCCCUUAUCAAGCGCGGAACGCACGACCCGUCUUUCGACAGGAGGCUCACAACAGGC
modifications: all pyrimidines 2'-F
Take B1: the Kd (commonly the constant that tells how readily two partners part at equilibrium) in series [1] stood at 0.13 nM.

B2: DD-172-2-20 (group B) (ssRNA)
RNA: GGGAGACAAGAAUAAACGCUCAACGCCAGGCCCUUAUCAAGCGCGGAACGCAUGACCCGUCUUUCGACAGGAGGCUCACAACAGGC
modifications: all pyrimidines 2'-F
B2 yielded a Kd in series [2] of 0.26 nM.

B3: DD-172-2-9 (group A) (ssRNA)
RNA: GGGAGACAAGAAUAAACGCUCAACACAAAACAAAAUAACCUUAGCCUCGGUGCUCUACGCAAUUCGACAGGAGGCUCACAACAGGC
modifications: all pyrimidines 2'-F
As for B3, the Kd in series [2] stood at 7.8 nM.

B4: DD-172-2-17 (group A) (ssRNA)
RNA: GGGAGACAAGAAUAACGCUCAAACACAAAACAAAAUAACUUGGCCUCGGUGCUCUACGCAAUUCGACAGGAGGCUCACAACAGGC
modifications: all pyrimidines 2'-F
Take B4: the affinity in series [2], expressed as Kd, was 7.2 nM.

The values above are taken from US20020137087, “2'-fluoropyrimidine anti-calf intestinal phosphatase nucleic acid ligands” (published 2002).
